{
  "source": "paper PMC4222845",
  "about": "(PLoS Pathogens, 2014)",
  "biological_target": "the molecule itself",
  "test": "SEC; Superdex 200 10/300 GL, 10 mM Tris-HCl pH 7.5, 150 mM NaCl, 0.5 mL/min, 4°C; equivalent molar concentrations, incubated 15 minutes; molecular weight from BioRad gel-filtration standards",
  "data": [
    {"protein": "IpgC (natural protein, also called translocator-specific chaperone from Shigella) MSLNITENESISTAVIDAINSGATLKDINAIPDDMMDDIYSYAYDFYNKGRIEEAEVFFRFLCIYDFYNVDYIMGLAAIYQIKEQFQQAADLYAVAFALGKNDYTPVFHTGQCQLRLKAPLKAKECFELVIQHSNDEKLKIKAQSYLDAIQDIKE", "values": [
      {"measurement": "stoichiometry N", "result": 2}
    ]}
  ]
}
